From patent CN117186235A (SHANGHAI HUAIYUE BIOLOGICAL TECH CO LTD, dated 2023)

Tests used:
人4-1BB-hFc蛋白 = biological target: T1, 人4-1BB-hFc蛋白 (human, UniProt Q07011 24-186); assay: ELISA, plate coated with human 4-1BB-hFc at 1.0 μg/mL, HRP secondary antibody
T1 construct: extracellular domain; The coated protein of the ELISA is called 人4-1BB-hFc蛋白; also called h4-1BB蛋白; 4-1BB重组蛋白; not shown: human IgG Fc fragment (hFc) of the pCpC vector

人4-1BB (CHO-K1细胞表面表达) = biological target: T2, 人4-1BB (CHO-K1细胞表面表达) (human, UniProt Q07011 24-255); assay: FACS on CHO-K1 cells expressing human 4-1BB, FITC anti-human IgG Fc
T2 construct: whole, on cells; Stably expressed on CHO-K1 cells for FACS; also called h4-1BB; CHO-K1-h4-1BB
T2 sequence (Q07011 24-255): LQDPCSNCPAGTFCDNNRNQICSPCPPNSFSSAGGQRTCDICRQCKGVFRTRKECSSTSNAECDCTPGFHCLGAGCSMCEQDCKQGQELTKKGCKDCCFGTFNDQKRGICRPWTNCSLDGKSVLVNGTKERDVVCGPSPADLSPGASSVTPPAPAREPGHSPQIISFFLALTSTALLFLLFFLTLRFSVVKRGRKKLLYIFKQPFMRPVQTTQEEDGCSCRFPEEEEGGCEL

[1] = biological target: T3, 人源EGFRvIII (CHO-K1细胞表面表达) (human, UniProt P00533 25-1210); assay: FACS on CHO-K1 cells expressing human EGFRvIII, FITC anti-human IgG Fc
T3 construct: whole, on cells; Stably expressed on CHO-K1 cells; It is a deletion variant of EGFR and not the wild type; also called hEGFRvIII; CHO-K1-hEGFRvIII

B1: 抗4-1BB抗体PE0116全长抗体 (antibody, V domains shown)
VH: QVQLVESGGGVVQPGRSLRLSCAASGLTFSSYGMHWVRQAPGKGLEWVAVIWYDGSNKYYADSVKGRFTISRDNSKNTLYLQMNSLRAEDTAVYYCAREEVLWFGELSYNYYYGMDVWGQGTTVTVSS
VL: DIQMTQSPSSLSASVGDRVTITCRASQGISNYLAWYQQKPGKVPKLLIYAASTLQSGVPSRFSGSGSGTDFTLTISSLQPEDVATYYCQKYNSVPLTFGGGTKVEIK
notes: Fully human antibody from Harbour transgenic mice; the bispecific uses it as IgG4; also called HY0101; PE0016
B1: binds (人4-1BB-hFc蛋白).

B2: 抗4-1BB/抗EGFRvIII双特异抗体HY1001007 (bispecific antibody, IgG4)
heavy (part 1 of 2): B1 VH
heavy (part 2 of 2): GGGGSGGGGSGGGGSEIVLTQSPATLSLSPGERATLSCRASSSVSSSYLHWYQQKPGQAPRLLIYSTSNLAAGIPARFSGSGSGTDFTLTISSLEPEDFAVYYCQQYSGYPLTFGGGTKVEIKGGGGSGGGGSGGGGSQVQLVQSGAEVKKPGASVKVSCKASGYTFTDYNMDWVRQAPGQGLEWMGDINPNNADTIYNQKFKGRVTMTRDTSTSTVYMELSSLRSEDTAVYYCARGDYDGYYPVYYAMDYWGQGTTVTVSS
light: B1 VL
notes: IgG-scFv format: PE0116 IgG4 with the 043-1 VL-VH scFv fused to the C-terminus of the heavy chain (PE0116VH-CH-043-1VLVH); also called CH-scFv(043-1VLVH)-IgG4(PE0116); not shown: human IgG4 heavy chain constant region (from the expression vector); human light chain constant region of the expression vector; kappa or lambda not
B2: binds (人4-1BB (CHO-K1细胞表面表达)); binds [1].
